Source: US10556936B2, “Immunogenic proteins and fragments thereof from allergenic mites” (ALK-ABELLÓ A/S, priority 2016, dated 2020)

B1: A025: house dust mite protein; SEQ ID NO: 17 (Der f), 18 (Der p) (protein)
chain: QSLFVDYNDYSCGSSQNETNELIQEFKIFKKNINGNENFKKINDFIEKARLFRDNAAKQMLEIDQQLLTLNVIQISQRIKLENNKIQCEKLTKFSELLSMQLLAYEVGMFEFAEEIDPNIDFDRKMKNFLDETSRLFNLAEFEKLEKKFRNATSIEKLKNYIDGELVALNDYINEFLKDIIMSEFTVQSRYYLNFSIEDQVQIDSTLMTFSALKILLNDLKDYLEHLDN
B2: A024: house dust mite protein; SEQ ID NO: 11 (Der f), 12 (Der p), 318 (Blo t) (protein)
chain: MSISAHGGGLVNGIAGMENKFTVFTSGKPVSGLTVAFEGPTKPEINFNSTKDGSVDVGYIPKAGGQYKIHIKYEGKEIVGSPFKCNISGDESTHRKLTEKVKVGGPNISTGKVNQDNQLTIDCKEAGITGGISFAMEGPAKVEVSFRNNNDGTITVIYKPPTPGDYKLHLKFNDIHLPGSPYPIVVSA
B3: A023: house dust mite protein; SEQ ID NO: 23 (Der f), 24 (Der p) (protein)
chain: DPVQQRPTLRGVTVRVGPFVKENNGKFEGFIPDLVQAISEKVGFDYTLYLSPDGRYGNVISDGNVTGMIGEVYNKKADFAAADLTMTEARENYITFTEPFMINQLAALIRREDAEGLNTLEDLAKAQETFPKRKRIVLGTLRNGATNYFLSKSDDPLAKKIYEQIKADDQSVVKSISEGVERVDKQGGYAFIMESASAEHEIANNCKLTMLLDWRNLFPRKYAFALPKDSPYLEHFNNAIKQLNSEGKIAELRRKYWANNCAENKTKDDKN
B4: Derf1: major house dust mite allergen, group 1, Dermatophagoides farinae; control (protein, UniProt P16311 99-321, looked up)
Peptidase 1: TSACRINSVNVPSELDLRSLRTVTPIRMQGGCGSCWAFSGVAATESAYLAYRNTSLDLSEQELVDCASQHGCHGDTIPRGIEYIQQNGVVEERSYPYVAREQRCRRPNSQHYGISNYCQIYPPDVKQIREALTQTHTAIAVIIGIKDLRAFQHYDGRTIIQHDNGYQPNYHAVNIVGYGSTQGDDYWIVRNSWDTTWGDSGYGYFQAGNNLMMIEQYPYVVIM

Key:
Format in all cases: cell-based, human
[1] = tested on: PBMC cells obtained from mite allergic patients and non-allergics; experiment: Ex vivo stimulation of PBMC: cytokine production (IFN-gamma, IL-9, IL-10, IL-17, IL-31)
Method in brief: (§1)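 Freshly isolated PBMC (5×10^6/ml) from mite-allergic patients or non-allergics cultured 5 days with test protein up to 10 ug/ml; IFN-gamma, IL-9, IL-10, IL-17, IL-31 in supernatants by multiplex immunoassay. T cell lines, raised 3 weeks on HDM extract, tested at 0.5 or 2 ug/ml protein in 72 h proliferation assay.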

[2] = tested on: T cell lines obtained from HDM allergic individuals and non-allergics; experiment: In vitro T cell proliferation test in T cell lines (Example 3); conditions: 0.5 or 2 ug/ml, 72 h; for % responders of in-vitro T cell proliferation test, Allergic: T cell lines from HDM allergic individuals (n=30); for % responders of in-vitro T cell proliferation test, Non-allergics: T cell lines from non-allergics (n=8)
Method in brief: as §1

[3] = tested on: basophils in whole blood from HDM allergic donors; experiment: Basophil Activation Test (BAT); conditions: blood from HDM allergic individuals (n=14)
Method in brief: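 Basophil activation was read by flow cytometry as increased surface activation markers. The stimulus was a 1 h exposure of blood from 14 HDM-allergic donors to test proteins or major mite allergens at graded concentrations (e.g. 1–1000 ng/ml).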

Molecule	% HDM allergic individuals with cytokine production in ex-vivo T cell assay IL-5 [1]	% HDM allergic individuals with cytokine production in ex-vivo T cell assay IL-9 [1]	% HDM allergic individuals with cytokine production in ex-vivo T cell assay IL-10 [1]	% HDM allergic individuals with cytokine production in ex-vivo T cell assay IL-13 [1]	% HDM allergic individuals with cytokine production in ex-vivo T cell assay IL-17 [1]	% HDM allergic individuals with cytokine production in ex-vivo T cell assay IL-31 [1]	% HDM allergic individuals with cytokine production in ex-vivo T cell assay INF-g [1]	% non-allergic individuals with cytokine production in ex-vivo T cell assay IL-5 [1]	% non-allergic individuals with cytokine production in ex-vivo T cell assay IL-9 [1]	% non-allergic individuals with cytokine production in ex-vivo T cell assay IL-10 [1]	% non-allergic individuals with cytokine production in ex-vivo T cell assay IL-13 [1]	% non-allergic individuals with cytokine production in ex-vivo T cell assay IL-17 [1]	% non-allergic individuals with cytokine production in ex-vivo T cell assay IL-31 [1]	% non-allergic individuals with cytokine production in ex-vivo T cell assay INF-g [1]	% responders of in-vitro T cell proliferation test, Allergic [2]	% responders of in-vitro T cell proliferation test, Non-allergics [2]	# of individuals of 14 with positive BAT test ([3]; 1 ng/ml)	# of individuals of 14 with positive BAT test ([3]; 10 ng/ml)	# of individuals of 14 with positive BAT test ([3]; 100 ng/ml)	# of individuals of 14 with positive BAT test ([3]; 1000 ng/ml)
B1	13%	6%	6%	13%	0%	0%	0%	0%	0%	0%	0%	0%	0%	0%	0%	0%	1	1	1	5
B2	13%	6%	25%	6%	6%	0%	0%	0%	0%	17%	0%	0%	0%	0%	21%	0%	2	2	3	3
B3	13%	13%	6%	13%	0%	0%	0%	0%	0%	0%	0%	0%	0%	0%	21%	0%	1	1	1	1
B4	75%	19%	50%	56%	6%	0%	0%	0%	0%	33%	0%	17%	0%	0%	70%	0%	10	10	10	10
